Test [1] has as its target T1, RbAB (Homo sapiens, UniProt P06400).
T1 construct: residues 372 to 589 of the A domain and 636 to 787 of the B domain; GST (with Prescission protease site) (N, cleaved yes); engineered thrombin site (LVPRGS) at the A-domain end of the A-B linker (C, cleaved yes); engineered thrombin site (LVPRGS) at the B-domain end of the A-B linker (N, cleaved yes); made in house; host or cells: E. coli
T1 sequence (P06400 372-589): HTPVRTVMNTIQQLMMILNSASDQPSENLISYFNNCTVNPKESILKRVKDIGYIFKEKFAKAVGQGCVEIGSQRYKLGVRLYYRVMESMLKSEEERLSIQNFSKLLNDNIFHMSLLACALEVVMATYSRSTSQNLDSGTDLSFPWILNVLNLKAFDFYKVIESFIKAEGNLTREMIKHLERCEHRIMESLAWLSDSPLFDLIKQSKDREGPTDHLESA
T1 sequence (P06400 636-787): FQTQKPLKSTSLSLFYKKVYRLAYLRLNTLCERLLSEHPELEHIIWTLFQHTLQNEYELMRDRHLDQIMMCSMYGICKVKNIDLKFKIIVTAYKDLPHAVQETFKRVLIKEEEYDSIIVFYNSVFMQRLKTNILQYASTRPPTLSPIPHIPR
The test can be described thus: Isothermal titration calorimetry of E2F constructs binding to RbAB. As to conditions: ITC, binding to pRbAB. Here is the method: The panel represents the experiment where E2F(243-437) is titrated into RbAB.
(B) Summary of dissociation constants obtained by ITC measurements. The quoted errors are those produced by fitting the data to a two-state model. For the interaction of E2F(243-437) to RbAB and RbABC the affinities are too high to measure reliably and we have therefore quoted the upper limits of the dissociation constants.
Binding of the various E2F constructs to RbAB and RbABC was measured by isothermal titration calorimetry using a MicroCal Omega VP-ITC machine (MicroCal Inc., Northampton, USA). The E2F constructs at a concentration between 100-150 μM were titrated into 12-15 μM Rb at a temperature of 22° C. Proteins were dialysed against 50 mM Tris pH 7.6, 100 mM NaCl and 1 mM TCEP. After subtraction of the dilution heats, calorimetric data was analysed using the evaluation software MicroCal Origin v5.0 (MicroCal Software Inc.). For all of the titrations, the stoichiometry of ligand binding to Rb was very close to 1.0. For E2F(243-437) binding to Rb, the binding affinity and the heat change associated with binding were such that we could only establish that binding was tighter than 10 nM.

The target of test [2] is T2, RbAB (Homo sapiens, UniProt P06400).
T2 construct: residues 372 to 589 of the A domain and 636 to 787 of the B domain; GST (with Prescission protease site) (N, cleaved yes); engineered thrombin site (LVPRGS) at the A-domain end of the A-B linker (C, cleaved yes); engineered thrombin site (LVPRGS) at the B-domain end of the A-B linker (N, cleaved yes); made in house; host or cells: E. coli
T2 sequence (P06400 whole entry, looked up): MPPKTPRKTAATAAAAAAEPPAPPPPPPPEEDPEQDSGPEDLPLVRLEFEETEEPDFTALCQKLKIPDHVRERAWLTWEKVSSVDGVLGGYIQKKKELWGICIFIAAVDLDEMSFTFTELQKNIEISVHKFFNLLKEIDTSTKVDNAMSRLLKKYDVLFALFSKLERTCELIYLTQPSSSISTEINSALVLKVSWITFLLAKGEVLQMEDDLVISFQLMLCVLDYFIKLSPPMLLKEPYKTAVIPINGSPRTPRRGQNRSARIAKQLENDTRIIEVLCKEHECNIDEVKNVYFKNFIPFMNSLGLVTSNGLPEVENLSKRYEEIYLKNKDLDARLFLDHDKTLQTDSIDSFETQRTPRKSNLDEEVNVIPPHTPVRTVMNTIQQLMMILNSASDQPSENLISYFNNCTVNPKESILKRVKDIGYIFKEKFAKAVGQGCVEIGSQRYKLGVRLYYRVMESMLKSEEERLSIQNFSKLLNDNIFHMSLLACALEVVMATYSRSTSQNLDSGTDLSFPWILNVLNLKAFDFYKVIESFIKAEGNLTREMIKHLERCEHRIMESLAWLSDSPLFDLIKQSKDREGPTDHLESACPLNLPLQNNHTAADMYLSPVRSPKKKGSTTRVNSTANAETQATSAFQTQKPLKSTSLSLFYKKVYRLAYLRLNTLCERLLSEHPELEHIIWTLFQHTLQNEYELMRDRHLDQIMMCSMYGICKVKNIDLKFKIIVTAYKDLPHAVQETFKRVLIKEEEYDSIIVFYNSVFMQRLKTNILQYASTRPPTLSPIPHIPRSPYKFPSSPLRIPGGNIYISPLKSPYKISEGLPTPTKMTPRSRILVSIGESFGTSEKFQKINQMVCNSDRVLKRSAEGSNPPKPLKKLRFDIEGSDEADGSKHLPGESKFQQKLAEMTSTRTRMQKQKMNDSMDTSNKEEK
Briefly: RbAB. An excerpt:
(§1) Table printed on a drawing sheet, FIG. 2B
(§2) The patent's description of the figure: FIG. 2.
(§3) First copying reader's note: Binding constants of E2F fragments to the Rb constructs RbAB and RbABC; the error is printed in the same cell as the value.
Where the first naming reader finds the target: head: RbAB

In a further test the target is T3, RbABC (Homo sapiens, UniProt P06400).
T3 construct: His6-RbABC (RESIDUES 380-929); made in house; host or cells: E. coli
T3 sequence (P06400 whole entry, looked up): T2 sequence (P06400 whole entry, looked up)
Briefly: RbABC.
Source text: as §1, §2, §3
Where the first naming reader finds the target: head: RbABC

B1: E2F(243-437): Recombinant human E2F1(243-437) expressed in E. coli (protein, UniProt Q01094 243-437, looked up, fragment)
chain: LAYVTCQDLRSIADPAEQMVMVIKAPPETQLQAVDSSENFQISLKSKQGPIDVFLCPEETVGGISPGKTPSQEVTSEEENRATDSATIVSPPPSSPPSSLTTDPSQSLLSLEQEPLLSRMGSLRAPVDEDRLSPLVAADSLLEHVREDFSGLLPEEFISLSPPHEALDYHFGLEEGEGIRDLFDCDFGDLTPLDF
By Kd is commonly meant the constant that tells how readily two partners part at equilibrium. The low end stands for a tighter complex, the high end for a looser complex. On to B1, for which the “binds stronger than either of the two shorter E2F fragments” value in the test with RbAB [1] was “at least 16 fold”. The Kd in the test with RbAB [2] and with RbABC was under 10 nM each time.

The values are drawn from patent publication US20060234906A1, “Structure of a complex of retinoblastoma protein bound to e2f, and uses thereof” (priority 2002, published 2006).
